Laboratory results from patent publication US20250297007A1 (published 2025).
Where a chain is given by its changes, count along the chain named.

B1: BJM0277 (antibody, V domains shown)
VH: QVQLVQSGAEVKKPGSSVKVSCKASGYSFTTYYIHWVRQAPGQGLEWMGWFFPGSGNIKYNEKFKGRVTITADTSTSTAYMELSSLRSEDTAVYYCAGSYYSYDVLDYWGQGTTVTVSS
VL: DIQMTQSPSFLSASVGDRVTITCKASQNVGINVVWHQQKPGKAPKALIYSSSHRYSGVPSRFSGSGSGTEFTLTISSLQPEDFATYFCQQFKSYPLTFGQGTKLEIKR
B2: A-H.52 (scFv)
scFv: QVQLVQSGAEVKKPGSSVKVSCKASGYSFTLGYIHWVRQAPGQGLEWMGWFFPGSGNIKYNEKFKGRVTITADTSTSTAYMELSSLRSEDTAVYYCAGSYYSYDVLDYWGQGTTVTVSSGGGGSGGGGSGGGGSGGGGSDIQMTQSPSFLSASVGDRVTITCKASQNVGINVVWHQQKPGKAPKALIYSSSHRYSGVPSRFSGSGSGTEFTLTISSLQPEDFATYFCQQFKSYPLTFGQGTKLEIK
notes: Phage clone, stated to be a monovalent scFv with two mutations in CDRH1; also called Antibody A-H.52
B3: A-H.53 (scFv)
scFv: B2 scFv with T30R, G32T
notes: Phage clone; also called Antibody A-H.53
B4: A-H.54 (scFv)
scFv: B2 scFv with T30H, L31N, G32W
notes: Phage clone; also called Antibody A-H.54

Biological target: T1, recombinant protein TCRVB 6-5 (human, biotinylated (captured on a Biotin CAP chip); site not stated)
T1 construct: also called TCRVβ 6-5; TCRβ V6-5*01
T1 TCR beta: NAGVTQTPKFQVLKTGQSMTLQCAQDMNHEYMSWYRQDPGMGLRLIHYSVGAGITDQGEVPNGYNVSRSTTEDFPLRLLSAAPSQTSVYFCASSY
Assay: SPR-type chip assay; TCRVB 6-5 captured on Biotin CAP Series S chip, construct as analyte, 1:1 binding model, 25C
Method: TCRVB 6-5 at 5 ug/mL was immobilized on a Biotin CAP Series S Sensor Chip to 60 RU. A-H.52 was diluted to 50 nM and then serially diluted two fold Association was 120 seconds, dissociation was 300 seconds. This assay was run in 1×HBS-EP+ Buffer pH 7.4 and 25C. The data was fit using a 1:1 binding model. A-H.52 is a phage clones and is a monovalent scFv. A-H.52 has two mutations on CDRH1.
(§1) TCRVB 6-5 at 5 ug/mL was immobilized on a Biotin CAP Series S Sensor Chip to 60 RU. A-H.53 was diluted to 50 nM and then serially diluted two fold. Association was 120 seconds, dissociation was 300 seconds. This assay was run in 1×HBS-EP+ Buffer pH 7.4 and 25C. The data was fit using a 1:1 binding model. A-H.53 (phage clone) affinity is in the pM range (Table 17).
as §1, with “A-H.54” for “A-H.53”, “model.” for “model. A-H.53 (phage clone) affinity is in the pM range (Table 17).”

Compared with B1, B2 is 20-fold lower in Kd: 35 nM for the first, 1.76 nM for the second. The second binds more tightly here.

Compared with B3, B4 is 13-fold higher in Kd: 0.165 nM for the first, 2.22 nM for the second. The first binds more tightly here.
